Literature values, collected in patent publication US8679781B2, “In vitro peptide expression library” (Isogenica Limited, priority 2002, dated 2014).

Target: double stranded DNA oestrogen receptor target HRE nucleotide sequence
Conditions: fragment expressed in E. coli; similar to the parent molecule; read-out: affinity

B1: oestrogen receptor DNA binding domain fragment (amino acids 176-282): oestrogen receptor DNA binding domain fragment (amino acids 176-282) expressed in E. coli (protein, UniProt P03372 176-282, looked up, fragment)
chain: MESAKETRYCAVCNDYASGYHYGVWSCEGCKAFFKRSIQGHNDYMCPATNQCTIDKNRRKSCQACRLRKCYEVGMMKGGIRKDRRGGRMLKHKRQRDDGEGRGEVGS
Kd: 0.5 nM
